Results as given in patent publication US20210155689A1 (SHANGHAI PHARMAEXPLORER, published 2021).

Tests used:
[1] = biological target: T1, human LAG-3 protein with hFc tag (hLAG-3-hFc protein) (human, UniProt P18627 23-450); experiment: FACS, blocks LAG-3-hFc binding to MHC II on Raji; 0.823 nM
T1 construct: also called immunogen 1; LAG-3 extracellular domain protein; not shown: human IgG Fc fragment (hFc) of the pCpC vector
T1 sequence: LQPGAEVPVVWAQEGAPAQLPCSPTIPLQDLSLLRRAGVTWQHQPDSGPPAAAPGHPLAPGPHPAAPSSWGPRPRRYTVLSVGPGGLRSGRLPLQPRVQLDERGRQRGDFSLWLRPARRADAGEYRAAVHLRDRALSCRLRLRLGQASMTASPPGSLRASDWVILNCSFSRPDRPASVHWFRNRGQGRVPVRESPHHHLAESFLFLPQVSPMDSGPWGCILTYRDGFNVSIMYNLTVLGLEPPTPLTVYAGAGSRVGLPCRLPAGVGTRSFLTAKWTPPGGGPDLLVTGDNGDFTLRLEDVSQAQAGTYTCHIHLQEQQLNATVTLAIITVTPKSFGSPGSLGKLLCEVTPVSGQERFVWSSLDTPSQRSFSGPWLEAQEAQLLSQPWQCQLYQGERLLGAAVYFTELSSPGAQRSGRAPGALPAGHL
Method: (§1) The FACS reaction plate incubating the Raji cells was centrifuged to discard the supernatant. The above mixture was added as 100 μl per well to Raji cells and incubated on ice for 1-2 hours. The plate was washed twice with blocking solution (PBS, 2% fetal bovine serum) by centrifugation, added with 100 microliters of fluorescent (Alexa 488)-labeled secondary antibodies per well, and incubated on ice for 1.0 hours. The plate was washed 2-3 times by centrifugation with blocking solution (PBS, 2% fetal bovine serum), added with 100 microliters of PBS per well to suspend cells, and detected using FACS (FACS Calibur, BD) and the results were analyzed. Wherein, the IgG control was murine IgG, and the data in the table is the inhibition rate (%).

[2] = biological target: T1, human LAG-3 protein with hFc tag …; experiment: FACS, blocks LAG-3-hFc binding to MHC II on Raji; 0.274 nM
Method: as §1

[3] = biological target: T2, human LAG-3 on cells (HEK293-hLAG-3 stable cell line) (human, UniProt P18627 23-525); experiment: FACS, HEK293-hLAG-3, antibody 1.600 nM
T2 sequence: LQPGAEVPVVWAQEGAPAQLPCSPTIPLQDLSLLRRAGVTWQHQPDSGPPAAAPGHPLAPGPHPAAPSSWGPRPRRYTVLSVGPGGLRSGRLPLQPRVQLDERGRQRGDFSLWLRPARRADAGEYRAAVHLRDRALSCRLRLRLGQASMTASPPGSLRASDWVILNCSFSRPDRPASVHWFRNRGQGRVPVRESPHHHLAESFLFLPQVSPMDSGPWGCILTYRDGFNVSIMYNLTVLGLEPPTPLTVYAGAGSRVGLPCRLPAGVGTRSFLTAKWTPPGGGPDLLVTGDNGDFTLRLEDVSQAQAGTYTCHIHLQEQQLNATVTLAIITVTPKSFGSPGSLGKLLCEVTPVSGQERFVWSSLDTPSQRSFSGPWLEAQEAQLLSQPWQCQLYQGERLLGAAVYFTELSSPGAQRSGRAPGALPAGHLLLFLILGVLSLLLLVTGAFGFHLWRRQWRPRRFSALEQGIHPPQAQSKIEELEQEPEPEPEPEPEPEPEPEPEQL
From the text: (§2) The pIRES plasmid with the monkey-derived full-length gene was transfected into the HEK293 cell line to construct a HEK293 stable cell line containing monkey LAG-3 (herein referred to as HEK293-cLAG-3 stable cell line). The HEK293-hLAG-3 stable cell line and HEK293-cLAG-3 stable cell line were expanded in a T-75 cell culture flask to a 90% confluence. The medium was aspirated, and the cells were washed with HBSS (Hanks' Balanced Salt Solution) 1-2 times, then treated with a enzyme-free cell dissociation fluid (Versene solution: Life technology) and the cells were collected. The cells were washed with HBSS buffer for 1-2 times. After counted, the cells were diluted with HBSS to 1-2×10⁶ cells per ml, added with 1% goat serum blocking solution, incubated on ice for 20-30 minutes, and then washed with HBSS for 2 times by centrifugation. The collected cells were suspended in the FACS buffer (HBSS+1% BSA) to 2×10⁶ cells/ml, added as 100 microliters per well to a 96-well FACS reaction plate, added with 100 microliters per well of the antibody sample to be tested, incubated on ice for 1-2 hours. The plate was washed twice with the FACS buffer by centrifugation, added with 100 microliters of fluorescent (Alexa 488)-labeled secondary antibodies per well, and incubated on ice for 0.5-1.0 hours. The plate was washed 2-3 times with FACS buffer by centrifugation, added with 100 μl fixative solution (4% Paraformaldehyde) per well to suspend the cells. 5-10 minutes later, it was washed 1-2 times with FACS buffer by centrifugation. The cells were suspended with 100 microliters of FACS buffer, FACS (FACSCalibur, BD) was used for detection and the results were analyzed.

[4] = biological target: T2, human LAG-3 on cells (HEK293-hLAG-3 …); experiment: FACS, HEK293-hLAG-3, antibody 200.000 nM
From the text: as §2

[5] = biological target: T3, LAG-3-hFc protein (human LAG-3 extracellular region with hFc tag) (human, UniProt P18627 23-450); experiment: FACS, inhibition of LAG-3-hFc binding to MHC II on Raji cells, antibody 66.667 nM
T3 construct: also called hLAG-3-hFc; LAG-3 protein; not shown: human IgG Fc fragment (hFc) of the pCpC vector
T3 sequence: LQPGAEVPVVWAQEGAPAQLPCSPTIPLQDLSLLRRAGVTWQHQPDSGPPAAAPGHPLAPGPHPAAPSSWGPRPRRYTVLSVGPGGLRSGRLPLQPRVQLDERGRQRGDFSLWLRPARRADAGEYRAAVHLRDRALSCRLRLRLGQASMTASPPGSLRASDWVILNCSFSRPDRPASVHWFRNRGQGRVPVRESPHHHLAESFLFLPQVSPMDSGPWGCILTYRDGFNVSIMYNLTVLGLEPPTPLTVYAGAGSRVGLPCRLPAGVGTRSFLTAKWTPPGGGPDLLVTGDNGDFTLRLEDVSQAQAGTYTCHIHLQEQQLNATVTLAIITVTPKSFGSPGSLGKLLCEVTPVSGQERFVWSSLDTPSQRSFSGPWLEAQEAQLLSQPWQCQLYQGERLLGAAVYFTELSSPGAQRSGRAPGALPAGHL
Method: as §1

[6] = biological target: T2, human LAG-3 on cells (HEK293-hLAG-3 …); experiment: cell-based or functional assay

B1: 409B11E12 (mouse antibody purified from hybridoma) (antibody, V domains shown)
VH: QVQLQQSGAELVRPGASVTLSCKASGYTFTDYEMHWVKQTTVHGLEWIGATDPETSYSAYNQKFKGKAILTADKSSSTAYMELRSLTSEDSAVYYCIATGWNDWGQGTSLTVSS
VL: DLKMTQSPSSMYASLGERVTITCKASQDINSYLSWFQQKPGKSPKTLIYRANRLLDGVPSRFSGSGSGQDYSLTISSLEYEDMGIYYCLQYDEFPYTFGGGTKLEIK
notes: also called mAb104-409B11E12
[1]
  Inhibition rate (%): 15.3%
[2]
  Inhibition rate (%): -3.9%

B2: 409D4E10 (mouse antibody purified from hybridoma) (antibody, V domains shown)
VH: QVQLQQSGAELVRPGASVTLSCKASGNTFTDYEMHWVKQTPVHGLEWIGATDPETDNTAYNQKFKGKAILTTDKSSSTAYMELRSLTSEDSAVYYCITSGWNDWGQGTSLTVSS
VL: DIKMTQSPSSMYASLGERVTITCKASQDINSYLSWFQQKPGKSPKTLIYRANRLLDGVPSRFSGSGSGQDYSLTISSLEYEDMGIYYCLQYNEFPYTFGGGTKLEIK
notes: also called mAb112-409D4E10
[1]
  Inhibition rate (%): 18.2%
[2]
  Inhibition rate (%): -7.5%

B3: 556F6B8 mouse-human chimeric antibody (antibody, V domains shown)
VH: RVQLKQSGPGLVQPSQSLSITCTVSGFSLIKYGVHWVRQSPGEGLEWLGVIWRGGITDYNAAFMSRLSITKDNSKSQVFFKMNSLQADDTAIYYCAKWDGPLAMDYWGQGTSVTVSS
VL: DIVMTQSHKFLSTSVGDRVSITCKASQDVGTTVAWYQQKPGQSPKLLIYWASTRHTGVPDRFTGSGSGTDFTLTISNVQSEDLADYFCQQYSSYPYTFGGGTKLEIK
notes: also called mAb123-556F6B8; 556F8B8
[3]
  Mean fluorescence intensity: 39.1
[4]
  Mean fluorescence intensity: 125
[5]
  Inhibition rate (%): 96%
[6]
  IL-2 production, antigen-specific T lymphocyte stimulation test, 0.016 ug/ml, N = 1: 348 pg/mL
  IL-2 production, antigen-specific T lymphocyte stimulation test, 0.016 ug/ml, N = 2: 353 pg/mL
  IL-2 production, antigen-specific T lymphocyte stimulation test, 0.08 ug/ml, N = 1: 499 pg/mL
  IL-2 production, antigen-specific T lymphocyte stimulation test, 0.08 ug/ml, N = 2: 491 pg/mL
  IL-2 production, antigen-specific T lymphocyte stimulation test, 0.4 ug/ml, N = 1: 794 pg/mL
  IL-2 production, antigen-specific T lymphocyte stimulation test, 0.4 ug/ml, N = 2: 599 pg/mL
  IL-2 production, antigen-specific T lymphocyte stimulation test, 2 ug/ml, N = 1: 818 pg/mL
  IL-2 production, antigen-specific T lymphocyte stimulation test, 2 ug/ml, N = 2: 866 pg/mL
  IL-2 production, antigen-specific T lymphocyte stimulation test, 10 ug/ml, N = 1: 584 pg/mL
  IL-2 production, antigen-specific T lymphocyte stimulation test, 10 ug/ml, N = 2: 722 pg/mL

B4: 556F6B8 (mouse antibody purified from hybridoma) (antibody, V domains shown)
VH: RVQLKQSGPGLVQPSQSLSITCTVSGFSLIKYGVHWVRQSPGEGLEWLGVIWRGGITDYNAAFMSRLSITKDNSKSQVFFKMNSLQADDTAIYYCAKWDGPLAMDYWGQGTSVTVSS
VL: DIVMTQSHKFLSTSVGDRVSITCKASQDVGTTVAWYQQKPGQSPKLLIYWASTRHTGVPDRFTGSGSGTDFTLTISNVQSEDLADYFCQQYSSYPYTFGGGTKLEIK
notes: also called mAb123-556F6B8
[1]
  Inhibition rate (%): 20.1%
[2]
  Inhibition rate (%): 6%
